Experimental findings from patent publication US20220112269A1 (WISCONSIN ALUMNI RESEARCH FOUNDATION, published 2022) are described below.

Data set [1] concerns the molecule itself. Briefly: CD, TEM, DLS, rheology, self-assembly.
Data set [2] deals with the molecule itself. Briefly: CD, TEM, DLS, self-association without fibers.
Data set [3] concerns the molecule itself. The data set is described as follows: CD, TEM, DLS, self-assembly.
Data set [4] deals with the molecule itself. Briefly: CD, DLS, rheology, self-assembly.
The data set “AUC, CD, self-assembly” deals with the molecule itself. The data set is described as follows: AUC, CD, self-assembly.
Data set [5] deals with the molecule itself. Briefly: sedimentation equilibrium AUC, monomer + multimer model, 15000 rpm, 4 C; self-assembly, lower bound. The protocol: Sedimentation equilibrium experiments were performed at the UW BIF with an XL-A analytical ultracentrifuge from Beckman Coulter (Brea, Calif.) equipped with an An-60 Ti rotor. Samples were prepared at 0.6 mg/mL in 10 mM sodium phosphate buffer, pH 7.0, but were diluted to 0.3 mg/mL prior to the experiment. Sample (100 μL) and matching buffer (110 μL) were placed in a cell with an Epon 12-mm double-sector charcoal-filled centerpiece from Beckman Coulter. Experiments were run at 4° C. for more than 7 days at speeds of 8.8, 15, 25, 36, and 60 k rpm, and gradients recorded at 231 nm were monitored until superimposable 4 h apart. A buffer density of 1.0011 g/mL and a partial specific volume of 0.6955 mL/g calculated based on amino-acid content was used for analysis. Equilibrium gradients at 4° C. were modeled as single and multiple non-interacting species through nonlinear least-squares fits to gradient data. Analysis was performed with programs written for IGOR PRO software from WaveMetrics (Lake Oswego, Oreg.) by Dr. D. R. McCaslin (UW BIF). Non-sedimenting baselines between 0.04-0.07 OD were applied for all samples during analysis.

The data set “CD, DLS, self-assembly” deals with the molecule itself. Briefly: CD, DLS, self-assembly.
Data set [6] concerns the molecule itself. Briefly: CD, TEM, DLS, self-assembly of the disulfide-linked dimer.
Data set [7] deals with the molecule itself. Briefly: AUC, CD, DLS, self-assembly.
Data set [8] concerns the molecule itself. Briefly: AUC, CD, AFM, TEM, self-assembly.
The data set “CD, TEM, self-assembly” concerns the molecule itself. Briefly: CD, TEM, self-assembly.

Substitutions are numbered along the chain they refer to. Names and notes keep the numbering of the source. Non-standard residues stand in square brackets, D forms with d. No end group written: not given here. Hyp = O=C(O)[C@@H]1C[C@@H](O)CN1

Consider P[Hyp]GP[Hyp]GPKGPKGPKGPKGP[Hyp]GP[Hyp]GD[Hyp]GD[Hyp]GD[Hyp]GD[Hyp]GP[Hyp]GP[Hyp]G (nT=14) [4sbG-OKDO], for which, in data set [1], the binding result is listed as “binds”.

With P[Hyp]GP[Hyp]GPKGPKGPKGP[Hyp]GPKGP[Hyp]GP[Hyp]GD[Hyp]GP[Hyp]GD[Hyp]GD[Hyp]GD[Hyp]G (nT=14) [4sbG-OKD2ctrl], the binding result in data set [2] is given as “binds”.

As to P[Hyp]GPKGPKGPKGPKGP[Hyp]GP[Hyp]GD[Hyp]GD[Hyp]GD[Hyp]GD[Hyp]GP[Hyp]GP[Hyp]GP[Hyp]G (nT=14) [4sbG-KDO2], the binding result in data set [3] was “binds”.

On to P[Hyp]GP[Hyp]GP[Hyp]GPKGPKGPKGP[Hyp]GPKGP[Hyp]GD[Hyp]GD[Hyp]GD[Hyp]GP[Hyp]GD[Hyp]G (nT=14) [4sbG-gap4], for which the binding result in [4] was “binds”.

Turning to PKGPKGPKGP[Hyp]GP[Hyp]GD[Hyp]GD[Hyp]GD[Hyp]GP[Hyp]GP[Hyp]GP[Hyp]G (nT=11) [3sbG-KDO], the binding result in the data set “AUC, CD, self-assembly” is reported as “binds”.

B1: 4sbG-OKD ("OKD") (peptide)
peptide: PXGPXGPXGPXGPKGPKGPKGPKGPXGPXGDXGDXGDXGDXG
modifications: O = 4-hydroxyproline (Hyp)
notes: Synthetic 42-residue collagen-mimetic peptide (nT=14)
For B1, in data set [5], the “Average oligomerization by AUC” value was > 188 -mer.

In the case of PXGPXGPCGPKGPKGPKGPKGPXGPXGDXGDXGDXGDXGPXG (O = 4-hydroxyproline (Hyp), Single Cys-bearing peptide, nT=14) [OKD2-C8], the binding result in “CD, DLS, self-assembly” is on record as “binds”.

Consider PXGPXGPXGPKGPKGPKGPKGPXGPXGDXGDXGDXGDXGPXG (O = 4-hydroxyproline (Hyp), nT=14) [4sbG-OKD2], for which the binding result in data set [1] is reported as “binds”.

As for PXGPXGPXGPKGPKGPKGPKGXXGPXGDXGDXGDXGDXGPXG (O = 4-hydroxyproline (Hyp); Hcy = homocysteine, Single Hcy-bearing peptide, nT=14) [OKD2-h22], in the data set “CD, DLS, self-assembly”, the binding result was “binds”.

B2: OKD2-OKD2 (peptide)
chain 1: B1 peptide with X11K, P22X, K23X, P28D, D40P
chain 2: B1 peptide with X8C, X11K, K23X, P28D, D40P
modifications: O = 4-hydroxyproline (Hyp); Cys in an interstrand disulfide bridge with Hcy of the other chain; O = 4-hydroxyproline (Hyp); Hcy = homocysteine, in an interstrand disulfide bridge with Cys of the other chain
notes: Disulfide-linked dimer (nT 14-14)
Regarding B2, in data set [6], the binding result was “binds”.

For PKGPKGPKGP[Hyp]GP[Hyp]GD[Hyp]GD[Hyp]GD[Hyp]GP[Hyp]GP[Hyp]GP[Hyp] (not fully specified (C-terminus), nT=11, printed without the last Gly) [3sb-KDO], the binding result in [7] was “binds”.

On to P[Hyp]GP[Hyp]GP[Hyp]GP[Hyp]GPKGPKGPKGPKGP[Hyp]GP[Hyp]GD[Hyp]GD[Hyp]GD[Hyp]GD[Hyp] (nT=14, printed without the last Gly) [4sb-OKD], for which the binding result in [8] is on record as “binds”.

For P[Hyp]GP[Hyp]GP[Hyp]GPKGPKGPKGP[Hyp]GP[Hyp]GD[Hyp]GD[Hyp]GD[Hyp] (nT=11, printed without the last Gly) [3sb-OKD], the binding result in the data set “AUC, CD, self-assembly” was “binds”.

Turning to P[Hyp]GP[Hyp]GP[Hyp]GPKGPKGPKGP[Hyp]GP[Hyp]GD[Hyp]GD[Hyp]GD[Hyp]G (nT=11) [3sbG-OKD], the binding result in “CD, TEM, self-assembly” is “binds”.
